# B1: MeV HEdm wildtype (wt) protein (other)
# chain: MSPQRDRINAFYKDNPHPKGSRIVINREHLMIDRPYVLLAVLFVMFLSLIGLLAIAGIRLHRAAIYTAEIHKSLSTNLDVTNSIEHQVKDVLTPLFKIIGDEVGLRTPQRFTDLVKFISDKIKFLNPDREYDFRDLTWCINPPERIKLDYDQYCADVAAEELMNALVNSTLLETRTTNQFLAVSKGNCSGPTTIRGQFSNMSLSLLDLYLGRGYNVSSIVTMTSQGMYGGTYLVEKPNLSSKRSELSQLSMYRVFEVGVIRNPGLGAPVFHMTNYLEQPVSNDLSNCMVALGELKLAALCHGEDSITIPYQGSGKGVSFQLVKLGVWKSPTDMQSWVPLSTDDPVIDRLYLSSHRGVIADNQAKWAVPTTRTDDKLRMETCFQQACKGKIQALCENPEWAPLKDNRIPSYGVLSVDLSLTVELKIKIASGFGPLITHGSGMDLYKSNHNNVYWLTIPPMKNLALGVINTLEWIPRFKVSPYLFTVPIKEAGGDCHAPTYLPAEVDGDVKLSSNLVILPGQDLQYVLATYDTSRVEHAVVYYVYSPSRSFSYFYPFRLPIKGVPIELQVECFTWDQKLWCRHFCVLADSESGGHITHSGMVGMGVSCTVTREDGTNRR
# Target: CD46 (human, UniProt P15529)
# Experiment: cell-based or functional assay
binder,measurement,value
B1,"titer [t.u./ml] of HIV-1 vector particles on 293T cells, concentrated supernatant",0 t.u./ml
same,"titer [t.u./ml] of HIV-1 vector particles on U-87MG cells, concentrated supernatant",0 t.u./ml
